In paper doi:10.1101/2024.10.21.619360:

Tests used:
[1] = molecular target: bovine complement factor I (bovine (B. taurus)); experiment: BLI; biotinylated bovine FI (150 nM) on streptavidin biosensors, PmSLP-1 as analyte at 0-1600 nM, Octet RED96, 30°C, PBS pH 7.4 with 0.01% Tween 20; steady-state analysis, one-site fit
[2] = molecular target: bovine complement factor I; experiment: biolayer interferometry; settings: n=3; parent: 27 ± 6
[3] = molecular target: bovine complement factor I; experiment: BLI; settings: 1600 nM PmSLP-1 mutant; biotinylated bovine FI on streptavidin sensors; 3 independent replicates; read off a plot
[4] = molecular target: bovine complement factor I (bovine (B. taurus)); experiment: cryo-EM structure; PmSLP-1 and FI mixed 5:1, complex isolated on Superdex Increase 200 in PBS pH 7.4, 0.25 mg/mL on gold grids, 40° tilt; dimer of the complex, protomer refined to 3.5 Å

With “PmSLP-1^95 (PmSLP-1^95-318 SERp) (domain or fragment)” the Kd [1] was 39 nM.
Work on “PmSLP-1^15 (PmSLP-1^15-318), surface lipoprotein of Pasteurella multocida strain 36950 L127D” yielded a Kd [2] of 85 nM and a response [3] of 0.23 AU.
With “PmSLP-1^15 (PmSLP-1^15-318), surface lipoprotein of Pasteurella multocida strain 36950 E240A” the response [3] was -0.0015 AU.
In the case of “PmSLP-1^15 (PmSLP-1^15-318), surface lipoprotein of Pasteurella multocida strain 36950 E132R”, the Kd [2] is reported as 28 nM and the response [3] is reported as 0.22 AU.
“PmSLP-1^15 (PmSLP-1^15-318), surface lipoprotein of Pasteurella multocida strain 36950 K236E” showed a Kd [2] of 33 nM and a response [3] of 0.24 AU.
Work on “PmSLP-1^15 (PmSLP-1^15-318), surface lipoprotein of Pasteurella multocida strain 36950 (domain or fragment)” yielded a Kd [1] of 27 nM.
“PmSLP-1^15 (PmSLP-1^15-318), surface lipoprotein of Pasteurella multocida strain 36950 D124R” showed a Kd [2] of 53 nM and a response [3] of 0.24 AU.
“PmSLP-1^15 (PmSLP-1^15-318), surface lipoprotein of Pasteurella multocida strain 36950 D210A” was tested, and the Kd [2] was 272 nM and the response [3] was 0.14 AU.
“PmSLP-1^15 (PmSLP-1^15-318), surface lipoprotein of Pasteurella multocida strain 36950 R167A” gave a Kd [2] of 107 nM and a response [3] of 0.18 AU.
For “PmSLP-1^15 (PmSLP-1^15-318), surface lipoprotein of Pasteurella multocida strain 36950 I133D”, the Kd [2] was 43 nM and the response [3] was 0.24 AU.
With bovine complement factor I (enzyme) the stoichiometry N [4] was 2.
“PmSLP-1^15 (PmSLP-1^15-318), surface lipoprotein of Pasteurella multocida strain 36950 D121A” was tested, and the Kd [2] was 117 nM and the response [3] was 0.19 AU.
